Data taken from paper PMC6849719, “Characterization of the first naturally thermostable terpene synthases and development of strategies to improve thermostability in this family of enzymes” (The Febs Journal, 2017).

B1: Rcas_0622 (Roseiflexus castenholzii DSM 13941) (protein)
chain: MDQDYRARLVYPFSGAISPHADIVDQATLAWAAMFGLLTDSLRHKSRRLQYGLLAARAYPRADREMLQIAADWIAWLFFMDDQCDETGIGRDLQRMIALHERFLAILDGATPEAHDCALTYALADLRRRLALRAPDNWLRRFSEHVRLYFTANRWETVNRQRGATPNVATYCAARLFSGAVYACFDLIELAEQIELPFYARHHSIVQQLEQAANNIICWCNDVLSYPKEMQHGDRHNLVLVIQGEHQCSLPEAIDRALDLHAREVATFVRKRTCVPYFDAAVNTALEKYVTGLQFWICANRDWSLTATRYAPTHKSQEMVMAVAQQ
notes: full length, N-terminal His6 tag (pET28a, NheI-EcoRI), codon-optimised gene, E. coli BL21(DE3); ~40 kDa

Legend:
[1] = system: T1, CC(C)=CCC/C(C)=C/CC/C(C)=C/CO[P@@](=O)(O)OP(=O)(O)O; test: purified protein; assay type: biochemical, Roseiflexus sp. RS-1; settings: 65 °C, 10 mM MgCl2, TS buffer (MES/Tris/CAPS, 100 mM NaCl), 1 μM enzyme, FPP 1.2-92 μM, commercial ammonium salt
T1 construct: full length (326 residues), N-terminal His6 tag (pET28a, NheI-EcoRI), codon-optimised gene, E. coli BL21(DE3); ~40 kDa

purified protein = substrate: CC(C)=CCC/C(C)=C/CC/C(C)=C/CO[P@@](=O)(O)OP(=O)(O)O; test: purified protein; assay type: biochemical, Roseiflexus castenholzii; settings: 65 °C, 10 mM MgCl2, TS buffer (MES/Tris/CAPS, 100 mM NaCl), 1 μM enzyme, FPP 1.2-92 μM, commercial ammonium salt

| Molecule | Km [1] | kcat [1] | Km (purified protein) | kcat (purified protein) |
| --- | --- | --- | --- | --- |
| RoseRS_3509 (Roseiflexus sp. RS-1) | 87 ± 31 µM | 0.95 ± 0.29 s⁻¹ | – | – |
| B1 | – | – | 5.9 ± 2.0 µM | 0.09 ± 0.008 s⁻¹ |
